B1: Idua (protein, UniProt P35475 28-653, looked up)
Alpha-L-iduronidase: APHLVHVDAARALWPLRRFWRSTGFCPPLPHSQADQYVLSWDQQLNLAYVGAVPHRGIKQVRTHWLLELVTTRGSTGRGLSYNFTHLDGYLDLLRENQLLPGFELMGSASGHFTDFEDKQQVFEWKDLVSSLARRYIGRYGLAHVSKWNFETWNEPDHHDFDNVSMTMQGFLNYYDACSEGLRAASPALRLGGPGDSFHTPPRSPLSWGLLRHCHDGTNFFTGEAGVRLDYISLHRKGARSSISILEQEKVVAQQIRQLFPKFADTPIYNDEADPLVGWSLPQPWRADVTYAAMVVKVIAQHQNLLLANTTSAFPYALLSNDNAFLSYHPHPFAQRTLTARFQVNNTRPPHVQLLRKPVLTAMGLLALLDEEQLWAEVSQAGTVLDSNHTVGVLASAHRPQGPADAWRAAVLIYASDDTRAHPNRSVAVTLRLRGVPPGPGLVYVTRYLDNGLCSPDGEWRRLGRPVFPTAEQFRRMRAAEDPVAAAPRPLPAGGRLTLRPALRLPSLLLVHVCARPEKPPGQVTRLRALPLTQGQLVLVWSDEHVGSKCLWTYEIQFSQDGKAYTPVSRKPSTFNLFVFSPDTGAVSGSYRVRALDYWARPGPFSDPVPYLEVPVPRGPPSPGNP
B2: Dctn2 (protein, UniProt Q99KJ8 2-402, looked up)
Dynactin subunit 2: ADPKYADLPGIARNEPDVYETSDLPEDDQAEFDAEELSSTSVEHIIVNPNAAYDKFKDKRVGTKGLDFSDRIGKTKRTGYESGDYEMLGEGLGVKETPQQKYQRLLHEVQELTTEVEKIKTTVKESATEEKLTPVVLAKQLAALKQQLVASHLEKLLGPDAAINLADPDGALAKRLLLQLEATKSSKGSSGGKATAGAPPDSSLVTYELHSRPEQDKFSQAAKVAELEKRLTELEATVRCDQDAQNPLSAGLQGACLMETVELLQAKVSALDLAVLDQVEARLQSVLGKVNEIAKHKASVEDADTQNKVHQLYETIQRWSPVASTLPELVQRLVTIKQLHEQAMQFGQLLTHLDTTQQMMASSLKDNTALLTQVQTTMRENLATVEGNFASIDARMKRLGK
B3: Cul5 (protein, UniProt Q9D5V5 1-780, looked up)
Cullin-5: MATSNLLKNKGSLQFEDKWDFMHPIVLKLLRQESVTKQQWFDLFSDVHAVCLWDDKGSSKIHQALKEDILEFIKQAQARVLSHQDDTALLKAYIVEWRKFFTQCDILPKPFCQLEVTLLGKQSSNKKSNMEDSIVRKLMLDTWNESIFSNIKNRLQDSAMKLVHAERLGEAFDSQLVIGVRESYVNLCSNPEDKLQIYRDNFEKAYLDSTERFYRTQAPSYLQQNGVQNYMKYADAKLKEEEKRALRYLETRRECNSVEALMECCVNALVTSFKETILAECQGMIKRNETEKLHLMFSLMDKVPNGIEPMLKDLEEHIISAGLADMVAAAETITTDSEKYVEQLLTLFNRFSKLVKEAFQDDPRFLTARDKAYKAVVNDATIFKLELPLKQKGVGLKTQPESKCPELLANYCDMLLRKTPLSKKLTSEEIEAKLKEVLLVLKYVQNKDVFMRYHKAHLTRRLILDISADSEIEENMVEWLREVGMPADYVNKLARMFQDIKVSEDLNQAFKEMHKNNKLALPADSVNIKILNAGAWSRSSEKVFVSLPTELEDLIPEVEEFYKKNHSGRKLHWHHLMSNGIITFKNEVGQYDLEVTTFQLAVLFAWNQRPREKISFENLKLATELPDAELRRTLWSLVAFPKLKRQVLLYDPQVNSPKDFTEGTLFSVNQDFSLIKNAKVQKRGKINLIGRLQLTTERMREEENEGIVQLRILRTQEAIIQIMKMRKKISNAQLQTELVEILKNMFLPQKKMIKEQMEWLIEHRYIRRDEADINTFIYMA
B4: Canx (protein, UniProt P35564 21-591, looked up)
Calnexin: HDGHDDDAIDIEDDLDDVIEEVEDSKSKSDASTPPSPKVTYKAPVPTGEVYFADSFDRGSLSGWILSKAKKDDTDDEIAKYDGKWEVDEMKETKLPGDKGLVLMSRAKHHAISAKLNKPFLFDTKPLIVQYEVNFQNGIECGGAYVKLLSKTAELSLDQFHDKTPYTIMFGPDKCGEDYKLHFIFRHKNPKTGVYEEKHAKRPDADLKTYFTDKKTHLYTLILNPDNSFEILVDQSVVNSGNLLNDMTPPVNPSREIEDPEDRKPEDWDERPKIADPDAVKPDDWDEDAPSKIPDEEATKPEGWLDDEPEYIPDPDAEKPEDWDEDMDGEWEAPQIANPKCESAPGCGVWQRPMIDNPNYKGKWKPPMIDNPNYQGIWKPRKIPNPDFFEDLEPFKMTPFSAIGLELWSMTSDIFFDNFIISGDRRVVDDWANDGWGLKKAADGAAEPGVVLQMLEAAEERPWLWVVYILTVALPVFLVILFCCSGKKQSNAMEYKKTDAPQPDVKDEEGKEEEKNKRDEEEEEEKLEEKQKSDAEEDGVTGSQDEEDSKPKAEEDEILNRSPRNRKPRRE
B5: Kpna4 (protein, UniProt O35343 2-521, looked up)
Importin subunit alpha-3: ADNEKLDNQRLKNFKNKGRDLETMRRQRNEVVVELRKNKRDEHLLKRRNVPQEDICEDSDIDGDYRVQNTSLEAIVQNASSDNQGIQLSAVQAARKLLSSDRNPPIDDLIKSGILPILVHCLERDDNPSLQFEAAWALTNIASGTSEQTQAVVQSNAVPLFLRLLHSPHQNVCEQAVWALGNIIGDGPQCRDYVISLGVVKPLLSFISPSIPITFLRNVTWVMVNLCRHKDPPPPMETIQEILPALCVLIHHTDVNILVDTVWALSYLTDAGNEQIQMVIDSGIVPHLVPLLSHQEVKVQTAALRAVGNIVTGTDEQTQVVLNCDALSHFPALLTHPKEKINKEAVWFLSNITAGNQQQVQAVIDANLVPMIIHLLDKGDFGTQKEAAWAISNLTISGRKDQVAYLIQQNVIPPFCNLLTVKDAQVVQVVLDGLSNILKMAEDQAETIANLIEECGGLEKIEQLQNHENEDIYKLAYEIIDQFFSSDDIDEDPSLVPESVQGGTFGFNSSTNVPTEGFQF
B6: Psmd8 (protein, UniProt Q9CX56 1-353, looked up)
26S proteasome non-ATPase …: MFIKGRAAKTPRGEPRRSSRGGRKLAVVAPPPVLGSTSRPHFRRESIARRRCRKSGRRLAASRKMAATAATVNGSTTVSSSGPAATSVGILQAAAGMYEQLKDEWNRKNPNLSKCGEELGRLKLVLLELNFLPTTGTKLTKQQLILARDILEIGAQWSILCKDIPSFERYMAQLKCYYFDYKEQLPESAYMHQLLGLNLLFLLSQNRVAEFHTELERLPAKDIQTNVYIKHPVSLEQYLMEGSYNKVFLAKGNIPAESYTFFIDILLDTIRDEIAGCIEKAYEKILFAEATRILFFSTPKKMTDYAKKRGWVLGPNNYYSFASQQQKPEDSTIPSTELAKQVIEYARQLEMIV

Legend:
DYT-TOR1A MEF EVs = experiment: Quantitative LC-MS/MS proteomics of EVs from drug-treated DYT-TOR1A MEF cultures (ritonavir, salubrinal); format: cell-based, mouse; parameters: key to RTV Corrective Direction / RTV Corrective Direction, Grwd1 / RTV Corrective Direction, Srrm2 / RTV Corrective Direction, Rbm17 / RTV Corrective Direction, Dcaf8 / RTV Corrective Direction, Edil3 / RTV Corrective Direction, Timp3 / RTV Corrective Direction, Heatr3 / RTV Corrective Direction, Brd4 / RTV Corrective Direction, P3h4 / RTV Corrective Direction, Pacsin3 / RTV Corrective Direction, Naa50 / RTV Corrective Direction, Lpar6 / RTV Corrective Direction, Ndrg1 / RTV Corrective Direction, Kntc1 / RTV Corrective Direction, Cdk11b / RTV Corrective Direction, Sumo1 / RTV Corrective Direction, Lsm4 / RTV Corrective Direction, Hmga2 / RTV Corrective Direction, Cstf1 / RTV Corrective Direction, Tes / RTV Corrective Direction, Sbno1 / RTV Corrective Direction, Unc119b / RTV Corrective Direction, Cfdp1 / RTV Corrective Direction, Sec61b: YES = protein abundance effect opposite to DYT/WT; conditions: EV protein abundance; for DYT + RTV/DYT Cohen's d: ritonavir (RTV)-treated DYT vs DYT; for RTV Corrective Direction: DYT + RTV (ritonavir) vs DYT, direction compared with DYT/WT
WT MEF EVs = experiment: Quantitative LC-MS/MS proteomics of EVs from ISRIB-treated WT MEF cultures; format: cell-based, mouse; parameters: key to ISRIB and DYT Parallel Direction / ISRIB and DYT Parallel Direction, Ctdsp1 / ISRIB and DYT Parallel Direction, Pcdh19 / ISRIB and DYT Parallel Direction, Tspan7 / ISRIB and DYT Parallel Direction, Myo1e / ISRIB and DYT Parallel Direction, Plpp3 / ISRIB and DYT Parallel Direction, Sh3bp4 / ISRIB and DYT Parallel Direction, Dnajc7 / ISRIB and DYT Parallel Direction, Drg1 / ISRIB and DYT Parallel Direction, Maea: YES = protein abundance effect similar to DYT/WT; conditions: EV protein abundance; for WT + ISRIB/WT Cohen's d: ISRIB-treated WT vs WT; for ISRIB and DYT Parallel Direction: WT + ISRIB vs WT, direction compared with DYT/WT

Molecule | DYT + RTV/DYT Cohen's d (DYT-TOR1A MEF EVs) | WT + ISRIB/WT Cohen's d (WT MEF EVs) | RTV Corrective Direction (DYT-TOR1A MEF EVs) | ISRIB and DYT Parallel Direction (WT MEF EVs)
B1 | −0.08 | 0.52 |  | 
B2 | 5.51 | −0.53 | YES | YES
B3 | 13.04 | −3.39 | YES | YES
B4 | −0.16 | 0.64 |  | 
B5 | 2.38 | −3.18 | YES | YES
B6 | 23.45 | −3.31 | YES | YES

Source: US20260266848A1, “COMPOSITIONS AND METHODS FOR DIAGNOSING AND TREATING DYSTONIA” (Duke University, priority 2023, published 2026)
